Data reported in US20250026792A1, “SELF-ASSEMBLING PEPTIDES WITH HYALURONIC ACID BINDING DOMAINS AND METHODS OF USE THEREOF” (Northwestern University, priority 2022, published 2025).
Entries after “also recorded” stand apart in the source; their conditions may differ. The star is where a group is joined. Biotin = O=C1N[C@H]2[C@H](CS[C@H]2CCCCC(=O)*)N1

T1: collagen type III (Homo sapiens, UniProt P02461)
T1 construct: purchased Sigma-Aldrich
T1 sequence (P02461 154-1221 limits assumed): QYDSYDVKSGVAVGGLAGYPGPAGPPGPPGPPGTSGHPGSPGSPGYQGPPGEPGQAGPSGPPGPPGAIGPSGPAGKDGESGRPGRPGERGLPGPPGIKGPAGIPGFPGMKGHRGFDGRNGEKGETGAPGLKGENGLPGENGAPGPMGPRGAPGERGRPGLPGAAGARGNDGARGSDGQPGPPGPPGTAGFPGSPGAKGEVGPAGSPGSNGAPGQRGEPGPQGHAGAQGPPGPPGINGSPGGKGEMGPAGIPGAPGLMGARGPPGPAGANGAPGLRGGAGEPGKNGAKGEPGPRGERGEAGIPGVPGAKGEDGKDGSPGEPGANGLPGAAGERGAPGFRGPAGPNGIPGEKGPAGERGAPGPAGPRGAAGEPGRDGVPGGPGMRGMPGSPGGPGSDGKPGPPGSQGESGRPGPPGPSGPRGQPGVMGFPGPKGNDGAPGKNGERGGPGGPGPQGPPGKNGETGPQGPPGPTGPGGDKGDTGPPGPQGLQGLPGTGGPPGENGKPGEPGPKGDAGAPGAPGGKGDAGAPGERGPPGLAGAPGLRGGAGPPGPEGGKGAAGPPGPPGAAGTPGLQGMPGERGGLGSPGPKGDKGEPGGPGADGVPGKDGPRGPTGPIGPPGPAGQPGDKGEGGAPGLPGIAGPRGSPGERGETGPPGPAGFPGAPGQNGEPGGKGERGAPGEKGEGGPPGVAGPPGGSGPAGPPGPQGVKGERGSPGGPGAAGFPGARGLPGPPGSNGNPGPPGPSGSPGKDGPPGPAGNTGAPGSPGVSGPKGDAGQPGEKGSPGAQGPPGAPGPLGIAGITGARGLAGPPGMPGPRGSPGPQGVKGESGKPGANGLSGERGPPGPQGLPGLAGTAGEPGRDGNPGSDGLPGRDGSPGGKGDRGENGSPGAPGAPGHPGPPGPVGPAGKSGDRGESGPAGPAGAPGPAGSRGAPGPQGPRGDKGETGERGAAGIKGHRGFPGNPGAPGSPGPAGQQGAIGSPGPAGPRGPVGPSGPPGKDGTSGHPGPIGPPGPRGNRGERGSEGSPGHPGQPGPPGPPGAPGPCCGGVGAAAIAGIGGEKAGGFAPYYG

T2: elastin (Bos taurus, UniProt P04985)
T2 construct: purchased Sigma-Aldrich
T2 sequence (P04985 27-747): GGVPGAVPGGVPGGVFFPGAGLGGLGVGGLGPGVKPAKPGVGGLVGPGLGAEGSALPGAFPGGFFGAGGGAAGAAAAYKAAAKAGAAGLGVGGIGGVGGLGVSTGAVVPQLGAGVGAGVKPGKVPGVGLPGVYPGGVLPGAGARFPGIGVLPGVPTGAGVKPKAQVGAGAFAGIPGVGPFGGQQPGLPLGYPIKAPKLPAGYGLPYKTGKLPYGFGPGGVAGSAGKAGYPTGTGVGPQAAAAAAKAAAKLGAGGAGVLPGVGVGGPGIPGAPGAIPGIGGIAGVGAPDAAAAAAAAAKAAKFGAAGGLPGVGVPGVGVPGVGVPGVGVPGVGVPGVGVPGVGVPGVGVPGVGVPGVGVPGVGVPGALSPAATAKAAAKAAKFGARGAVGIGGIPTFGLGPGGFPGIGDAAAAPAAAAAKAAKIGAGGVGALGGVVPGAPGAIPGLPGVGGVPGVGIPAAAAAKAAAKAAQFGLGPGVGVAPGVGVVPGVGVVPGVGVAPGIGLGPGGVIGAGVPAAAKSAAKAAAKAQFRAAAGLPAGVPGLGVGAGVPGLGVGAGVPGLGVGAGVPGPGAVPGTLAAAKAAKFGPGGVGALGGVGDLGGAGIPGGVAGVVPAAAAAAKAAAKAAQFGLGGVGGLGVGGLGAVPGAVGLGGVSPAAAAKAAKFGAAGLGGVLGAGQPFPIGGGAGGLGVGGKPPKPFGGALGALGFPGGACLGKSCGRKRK

T3: elastin (bovine) (bovine, UniProt P04985 27-747, limits assumed)
T3 construct: Coated and dried on plates at 10 ug/cm2
T3 sequence (looked up): T2 sequence (P04985 27-747)

T4: collagen type III (human) (human, UniProt P02461 154-1221)
T4 construct: III (human)'; Coated and dried on plates at 10 ug/cm2; also called collagen III
T4 sequence (looked up): T1 sequence (P02461 154-1221 limits assumed)

B1: Peptide 10K (peptide)
peptide: Biotin-TKAKIKHSVKLKAKLRIKLVKRI-OH
SMILES: CC[C@H](C)[C@H](NC(=O)[C@H](CCCNC(=N)N)NC(=O)[C@H](CCCCN)NC(=O)[C@@H](NC(=O)[C@H](CC(C)C)NC(=O)[C@H](CCCCN)NC(=O)[C@@H](NC(=O)[C@H](CCCNC(=N)N)NC(=O)[C@H](CC(C)C)NC(=O)[C@H](CCCCN)NC(=O)[C@H](C)NC(=O)[C@H](CCCCN)NC(=O)[C@H](CC(C)C)NC(=O)[C@H](CCCCN)NC(=O)[C@@H](NC(=O)[C@H](CO)NC(=O)[C@H](Cc1c[nH]cn1)NC(=O)[C@H](CCCCN)NC(=O)[C@@H](NC(=O)[C@H](CCCCN)NC(=O)[C@H](C)NC(=O)[C@H](CCCCN)NC(=O)[C@@H](NC(=O)CCCC[C@@H]1SC[C@@H]2NC(=O)N[C@@H]21)[C@@H](C)O)[C@@H](C)CC)C(C)C)[C@@H](C)CC)C(C)C)C(=O)O
notes: 23-residue designed peptide; biotinylated synthetic peptide

Assays:
collagen type I = target: T5, collagen type I (Rattus norvegicus, UniProt P02454+P02466); experiment: ECM specificity binding test, collagen type I coating; conditions: 5.0 mg/ml peptide, FIG. 4
T5 construct: purchased Sigma-Aldrich
Method: (§1) Peptides were incubated 24 hours at 37° C. on collagens I-IV, elastin, hyaluronic acid, and Geltrex. Coatings (10 pig/cm^2) were previously dried overnight in milli-Q water. Overall significance was assessed using analysis of variance, with Tukey's multiple comparison post-hoc analysis between ECM groups where n=4.
(§2) Biotinylated peptides were custom synthesized by ABI Scientific, Inc. (Sterling, VA). Uranyl acetate and TEM grids were from Ted Pella, Inc (Redding, CA). Unless specified otherwise, all water used in these experiments was Milli-Q grade. HA (˜1 MDa), collagen types I (rat), II (chicken), III (human), and IV (mouse), elastin (bovine), deuterium oxide (D2O), acetic acid-d4, sodium acetate-d3, 3-(Trimethylsilyl)propionic-2,2,3,3-d6 (DSS-D6) acid sodium salt, and 2,2,2-trifluoroethanol (TFE) and were obtained from Sigma-Aldrich (St. Louis, MO). Streptavidin (Alexa Fluor 488 conjugate) and Geltrex were obtained from Thermo Fisher Scientific Inc. (Waltham, MA). […]
(§3) Hyaluronic acid, collagens I, II, III, and IV, elastin, and Geltrex were coated onto 96-well black plates (medium binding affinity) at 10 μg/cm^2 and were dried in milli-Q water at room temperature. […] The plates were read with a fluorescence microplate reader for fluorescence intensity (Ex 490 nm, Em 525 nm). All data were normalized to the background fluorescence intensity of Streptavidin-488.

collagen type II = target: T6, collagen type II (Gallus gallus, UniProt P02460); experiment: ECM specificity binding test, collagen type II coating; design: species or system chicken; conditions: 5.0 mg/ml peptide, FIG. 4
T6 construct: purchased Sigma-Aldrich
T6 sequence (P02460 whole entry): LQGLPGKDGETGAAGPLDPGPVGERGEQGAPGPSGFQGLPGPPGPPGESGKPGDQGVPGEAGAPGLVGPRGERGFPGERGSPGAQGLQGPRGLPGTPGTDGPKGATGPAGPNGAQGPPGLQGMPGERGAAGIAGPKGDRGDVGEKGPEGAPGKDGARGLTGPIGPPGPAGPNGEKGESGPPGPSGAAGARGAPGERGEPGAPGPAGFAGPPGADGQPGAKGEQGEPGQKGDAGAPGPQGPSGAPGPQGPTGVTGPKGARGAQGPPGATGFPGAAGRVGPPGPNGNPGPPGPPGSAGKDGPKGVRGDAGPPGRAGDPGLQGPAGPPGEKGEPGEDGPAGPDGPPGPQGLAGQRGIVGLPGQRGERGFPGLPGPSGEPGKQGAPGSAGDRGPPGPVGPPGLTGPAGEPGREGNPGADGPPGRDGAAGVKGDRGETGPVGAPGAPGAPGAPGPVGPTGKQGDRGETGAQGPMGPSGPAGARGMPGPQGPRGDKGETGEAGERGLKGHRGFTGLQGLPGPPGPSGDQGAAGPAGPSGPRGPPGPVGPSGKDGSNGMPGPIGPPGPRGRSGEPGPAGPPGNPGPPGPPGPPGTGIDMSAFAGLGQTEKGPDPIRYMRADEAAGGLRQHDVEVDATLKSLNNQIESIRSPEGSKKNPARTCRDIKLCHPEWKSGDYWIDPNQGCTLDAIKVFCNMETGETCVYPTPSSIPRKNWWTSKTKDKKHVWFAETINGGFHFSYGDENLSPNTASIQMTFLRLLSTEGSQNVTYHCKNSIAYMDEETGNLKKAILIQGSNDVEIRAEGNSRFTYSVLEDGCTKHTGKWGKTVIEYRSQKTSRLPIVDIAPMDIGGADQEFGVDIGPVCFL
Method: as §1, §2, §3

collagen type III = target: T1, collagen type III; experiment: ECM specificity binding test, collagen type III coating; conditions: 5.0 mg/ml peptide, FIG. 4
Method: as §1, §2, §3

elastin = target: T2, elastin; experiment: ECM specificity binding test, elastin coating; design: species or system bovine; conditions: 5.0 mg/ml peptide, FIG. 4
Method: as §1
Biotinylated peptides were custom synthesized by ABI Scientific, Inc. (Sterling, VA). Uranyl acetate and TEM grids were from Ted Pella, Inc (Redding, CA). Unless specified otherwise, all water used in these experiments was Milli-Q grade. HA (˜1 MDa), collagen types I (rat), II (chicken), III (human), and IV (mouse), elastin (bovine), deuterium oxide (D2O), acetic acid-d4, sodium acetate-d3, 3-(Trimethylsilyl)propionic-2,2,3,3-d6 (DSS-D6) acid sodium salt, and 2,2,2-trifluoroethanol (TFE) and were obtained from Sigma-Aldrich (St. Louis, MO). Streptavidin (Alexa Fluor 488 conjugate) and Geltrex were obtained from Thermo Fisher Scientific Inc. (Waltham, MA). Sodium hyaluronate (5 and 60 KDa) was purchased from Lifecore Biomedical LLC (Chaska, MN). In reference to terminology, N and C termini is used to describe the amino terminal (N) and the carboxyl terminal (C) of the peptide. The biotinylated peptides are used in every experiment.
(§4) Hyaluronic acid, collagens I, II, III, and IV, elastin, and Geltrex were coated onto 96-well black plates (medium binding affinity) at 10 μg/cm^2 and were dried in milli-Q water at room temperature. N-termini biotinylated peptides were added to coated plates at 0, 1, 2.5, 5 and 10 mg/ml overnight at 37° C. in phosphate buffered saline (PBS), pH 7.4, after which the plates were washed three times with PBS. Fluorescent streptavidin-488 (4 μg/mL) was added to each well and incubated at 37° C. temperature for 24 hours, then thoroughly washed with PBS. The plates were read with a fluorescence microplate reader for fluorescence intensity (Ex 490 nm, Em 525 nm). All data were normalized to the background fluorescence intensity of Streptavidin-488.

[1] = system: extracellular matrix (ECM) components: Collagen type I, II, III and IV, elastin, hyaluronic acid and Geltrex; experiment: ECM specificity binding test, whole panel; conditions: 5.0 mg/ml peptide, FIG. 4
[2] = Circular dichroism (CD) of peptides; type: physicochemical; conditions: 20 mM Sodium Cacodylate; for Ellipticity ratio (222 nm/208 nm) / Ellipticity 208 nm / Ellipticity 222 nm: 1.25 mg/mL; for Ellipticity 208 nm / Ellipticity 222 nm: CD data given as [θ]M×10^−3; for wavelength Minimum of CD profile: 5.0 mg/mL
[3] = Transmission electron microscopy (TEM) of peptide nanostructures; type: physicochemical; conditions: for TEM characterization, Phosphate Buffered Saline (i): PBS pH 7.4, 0.5% w/v, 30 minutes sonication, 24 hrs at 37° C.
Method: The sample and stain were filter-dried in between steps. Samples were collected 24 hours at 37° C. after 30 minutes of sonication. All TEM was performed on a Philips FEI Technai Spirit G2 electron microscope. Peptides were incubated in both PBS and SC.

[4] = Concentration-dependent peptide binding to hyaluronic acid coating (biotin-streptavidin fluorescence)
Method: Peptides were incubated 24 hours at 37° C. Coatings (10 μg/cm^2) were previously dried overnight in milli-Q water. Overall significance was assessed using analysis of variance, with Tukey's multiple comparison post-hoc analysis between 1-scrm and experimental groups where n=4.
N-termini biotinylated peptides were added to coated plates at 0, 1, 2.5, 5 and 10 mg/ml overnight at 37° C. in phosphate buffered saline (PBS), pH 7.4, after which the plates were washed three times with PBS.

[5] = ECM specificity binding test, hyaluronic acid coating; conditions: 5.0 mg/ml peptide, FIG. 4
Method: as §1, §4

collagen type IV = target: T7, collagen type IV (Mus musculus, UniProt P02463+P08122); experiment: ECM specificity binding test, collagen type IV coating; conditions: 5.0 mg/ml peptide, FIG. 4
T7 construct: purchased Sigma-Aldrich
T7 sequence (P02463 173-1669): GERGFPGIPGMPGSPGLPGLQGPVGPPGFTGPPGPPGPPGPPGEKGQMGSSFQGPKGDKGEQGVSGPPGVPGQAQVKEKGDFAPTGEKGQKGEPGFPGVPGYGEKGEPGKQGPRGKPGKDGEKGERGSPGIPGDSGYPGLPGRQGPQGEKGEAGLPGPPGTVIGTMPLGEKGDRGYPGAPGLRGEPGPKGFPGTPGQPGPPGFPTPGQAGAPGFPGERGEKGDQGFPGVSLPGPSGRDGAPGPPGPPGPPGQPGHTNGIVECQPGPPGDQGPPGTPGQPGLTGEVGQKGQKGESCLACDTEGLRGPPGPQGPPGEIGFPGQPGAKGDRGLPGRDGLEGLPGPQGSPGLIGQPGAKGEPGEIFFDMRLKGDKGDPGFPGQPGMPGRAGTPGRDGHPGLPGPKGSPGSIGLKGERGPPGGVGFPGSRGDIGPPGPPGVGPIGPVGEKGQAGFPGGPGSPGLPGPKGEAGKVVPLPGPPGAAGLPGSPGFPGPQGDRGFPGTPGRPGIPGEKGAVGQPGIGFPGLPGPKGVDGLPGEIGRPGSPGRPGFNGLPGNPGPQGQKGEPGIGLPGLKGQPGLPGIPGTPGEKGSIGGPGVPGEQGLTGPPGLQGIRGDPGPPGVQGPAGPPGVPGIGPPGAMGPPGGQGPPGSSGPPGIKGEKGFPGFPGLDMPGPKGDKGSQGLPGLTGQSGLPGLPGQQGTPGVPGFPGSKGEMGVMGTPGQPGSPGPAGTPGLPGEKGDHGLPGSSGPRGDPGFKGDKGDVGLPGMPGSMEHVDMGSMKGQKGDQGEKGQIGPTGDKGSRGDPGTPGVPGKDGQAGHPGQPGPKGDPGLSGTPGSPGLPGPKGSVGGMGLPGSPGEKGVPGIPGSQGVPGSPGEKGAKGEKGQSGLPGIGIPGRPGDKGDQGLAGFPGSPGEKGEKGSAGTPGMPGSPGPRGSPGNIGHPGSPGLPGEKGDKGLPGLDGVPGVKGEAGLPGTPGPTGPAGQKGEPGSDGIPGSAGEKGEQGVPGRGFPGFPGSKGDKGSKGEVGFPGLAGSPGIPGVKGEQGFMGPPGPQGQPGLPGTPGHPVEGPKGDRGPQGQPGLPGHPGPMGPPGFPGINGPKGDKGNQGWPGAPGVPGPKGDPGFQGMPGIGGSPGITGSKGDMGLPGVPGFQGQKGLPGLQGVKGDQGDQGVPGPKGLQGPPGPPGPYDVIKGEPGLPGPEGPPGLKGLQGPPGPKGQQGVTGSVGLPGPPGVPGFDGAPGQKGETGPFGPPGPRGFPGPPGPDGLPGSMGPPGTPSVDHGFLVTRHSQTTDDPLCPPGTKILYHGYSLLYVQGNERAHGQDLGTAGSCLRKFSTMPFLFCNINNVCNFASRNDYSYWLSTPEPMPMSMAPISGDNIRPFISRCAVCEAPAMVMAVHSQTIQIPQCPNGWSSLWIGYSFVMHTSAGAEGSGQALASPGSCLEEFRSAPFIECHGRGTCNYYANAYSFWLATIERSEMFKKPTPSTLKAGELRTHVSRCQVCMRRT
T7 sequence (P08122 29-1707 limits assumed): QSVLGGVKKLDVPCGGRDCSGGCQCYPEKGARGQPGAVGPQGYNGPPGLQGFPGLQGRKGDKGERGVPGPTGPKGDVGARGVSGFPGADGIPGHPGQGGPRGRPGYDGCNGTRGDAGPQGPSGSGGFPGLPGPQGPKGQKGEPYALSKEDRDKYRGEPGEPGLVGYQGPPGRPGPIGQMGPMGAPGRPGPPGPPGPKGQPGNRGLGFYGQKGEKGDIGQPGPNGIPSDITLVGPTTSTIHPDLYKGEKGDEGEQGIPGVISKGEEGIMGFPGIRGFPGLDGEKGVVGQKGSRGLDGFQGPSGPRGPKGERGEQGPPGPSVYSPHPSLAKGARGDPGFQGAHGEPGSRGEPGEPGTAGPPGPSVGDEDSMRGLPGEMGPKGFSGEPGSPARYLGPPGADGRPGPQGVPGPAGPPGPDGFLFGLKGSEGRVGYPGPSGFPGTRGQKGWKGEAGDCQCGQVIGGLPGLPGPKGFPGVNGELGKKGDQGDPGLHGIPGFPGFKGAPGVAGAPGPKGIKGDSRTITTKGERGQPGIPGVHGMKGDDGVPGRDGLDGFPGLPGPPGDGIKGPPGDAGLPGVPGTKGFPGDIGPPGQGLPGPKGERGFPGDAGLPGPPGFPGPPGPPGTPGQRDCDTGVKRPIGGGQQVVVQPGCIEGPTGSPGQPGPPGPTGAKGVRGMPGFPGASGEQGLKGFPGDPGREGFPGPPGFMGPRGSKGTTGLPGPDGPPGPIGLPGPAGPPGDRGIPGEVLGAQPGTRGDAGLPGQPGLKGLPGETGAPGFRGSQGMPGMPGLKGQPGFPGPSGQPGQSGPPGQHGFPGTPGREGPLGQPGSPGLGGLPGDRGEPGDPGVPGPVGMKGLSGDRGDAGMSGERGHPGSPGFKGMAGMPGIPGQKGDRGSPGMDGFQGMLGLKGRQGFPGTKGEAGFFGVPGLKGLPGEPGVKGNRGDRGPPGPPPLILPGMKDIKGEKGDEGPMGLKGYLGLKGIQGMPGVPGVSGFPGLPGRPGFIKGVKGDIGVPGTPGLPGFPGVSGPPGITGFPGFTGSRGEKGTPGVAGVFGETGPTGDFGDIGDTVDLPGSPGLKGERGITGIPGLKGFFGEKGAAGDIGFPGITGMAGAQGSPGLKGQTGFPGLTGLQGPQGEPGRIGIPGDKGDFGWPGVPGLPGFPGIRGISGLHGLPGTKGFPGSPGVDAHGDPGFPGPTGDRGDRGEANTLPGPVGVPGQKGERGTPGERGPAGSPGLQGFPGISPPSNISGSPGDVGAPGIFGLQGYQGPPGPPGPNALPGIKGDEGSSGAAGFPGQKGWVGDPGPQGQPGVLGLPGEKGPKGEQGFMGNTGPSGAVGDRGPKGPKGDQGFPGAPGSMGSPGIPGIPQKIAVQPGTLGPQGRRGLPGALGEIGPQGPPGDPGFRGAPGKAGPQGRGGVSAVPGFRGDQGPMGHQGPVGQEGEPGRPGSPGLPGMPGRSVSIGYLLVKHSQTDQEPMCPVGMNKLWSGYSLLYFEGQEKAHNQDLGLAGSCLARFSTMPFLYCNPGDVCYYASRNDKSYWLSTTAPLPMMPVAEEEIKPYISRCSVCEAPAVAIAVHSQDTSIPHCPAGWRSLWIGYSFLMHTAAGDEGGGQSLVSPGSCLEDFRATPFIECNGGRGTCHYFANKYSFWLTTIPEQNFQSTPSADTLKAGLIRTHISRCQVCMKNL
Method: as §1, §2, §3

Geltrex = experiment: ECM specificity binding test, Geltrex coating; conditions: 5.0 mg/ml peptide, FIG. 4
Method: as §1, §2, §3

elastin (bovine) = target: T3, elastin (bovine); experiment: plate assay: biotinylated peptide (5.0 mg/ml) on dried ECM coating, streptavidin-488 fluorescence
Method: as §1, with “pig/cm²)” for “pig/cm^2)”
as §4, with “N-termini” for “Hyaluronic acid, collagens I, II, III, and IV, elastin, and Geltrex were coated onto 96-well black plates (medium binding affinity) at 10 μg/cm^2 and were dried in milli-Q water at room temperature. N-termini”

[6] = target: T4, collagen type III (human); experiment: as above
Method: as §1, with “pig/cm²)” for “pig/cm^2)”
as §4, with “N-termini” for “Hyaluronic acid, collagens I, II, III, and IV, elastin, and Geltrex were coated onto 96-well black plates (medium binding affinity) at 10 μg/cm^2 and were dried in milli-Q water at room temperature. N-termini”

Molecule	binding to collagen type II (collagen type II)	binding to elastin (elastin)	Ellipticity ratio (222 nm/208 nm) [2]	Ellipticity 208 nm [2]	Ellipticity 222 nm [2]	wavelength Minimum of CD profile [2]	wavelength Minimum of CD profile ([2]; 20% TFE)	TEM characterization, Phosphate Buffered Saline (i) [3]	further results
TKAKIKHSVKLKAKLRIKLVKRI [Peptide 10K, five B(X7)B domains in 23 residues]	predominantly	predominantly	0.67	−113	−75.3	224 nm	223 nm	No structure	binding to collagen type I (collagen type I): predominantly; binding to collagen type III (collagen type III): predominantly; binding to the ECMs (for 17x-3: the ECMs other than hyaluronic acid) [1]: moderate binding; Ellipticity ratio (222 nm/208 nm) ([2]; 20% TFE): 0.83; Ellipticity 208 nm ([2]; 20% TFE): −235; Ellipticity 222 nm ([2]; 20% TFE): −194
TNLRNKYTFLARARANLAVRNKQNIKS [BHP4, variant of BHP3]	moderately	moderately	0.81	−107	−86.6	226 nm	225 nm	form fibers with many striations that form larger fibers and the larger fibers tend to form a mesh network	binding to hyaluronic acid with increasing concentrations of peptide (fluorescence intensity) ([4]; 0-10 mg/ml peptide, PBS pH 7.4, 37° C., HA coating 10 μg/cm^2, FIG. 3): increases dramatically; HA binding, overall assessment ([4]; summary and discussion statements): comparable binding; also recorded: HA specific and robust binders; binding to hyaluronic acid in specificity testing [5]: binds; binding to collagen type IV (collagen type IV): moderately; binding to Geltrex (Geltrex): moderately; specificity of binding to ECMs [1]: lowest specificity; nanofiber formation in TEM, overall ([3]; both PBS and sodium cacodylate): consistent nanofibers; also recorded: predominantly form fibers with striations and furthermore form a mesh network
B1	–	–	–	–	–	–	–	–	binding result (elastin (bovine)): binds; binding result [6]: binds
